Source: the nanobody polyreactivity screen of Harvey et al. (2022)

Test: yeast display, Sf9 membrane polyspecificity reagent, FACS + sequencing; frameworks hold sequencing errors
Method in brief: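 Sorting gates, low and high (top ~1%), were placed on anti-HA fluorescence to track expression and on streptavidin fluorescence to track reagent binding. A clone's polyreactivity label is taken from the gate it came out of. The reagent was 10% biotinylated, detergent-solubilized Sf9 membrane, applied for 1 hour at 4 °C to galactose-induced yeast display cells.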

Sequence	polyreactivity (PSR sort gate)
QVQLVESGGRLVQAGGRLRLSCAASGRTFPIYVMGWYRQAQGKERELVATIDSDGTTNYADSVKGRFTISRDNAKNTVSLQMNSLKPEDTAVYYCAADSGWWEYCEDYWGQGTQVTVSS	low polyreactivity
QVQLVESGGRLVQAGGRLRLSGAASGSNFTDNAMGWYRQAPGKERELVAGISERGSSTYYADSVKGRFTISRDNAKNTVYLQMNSLKRVDTAVYYCSAEDVGRYWSSTHNWARGDYWGQGTQVTVSS	low polyreactivity
QVQLVESGGRLVQAGGSIRLSCAASGRTFYTNAMGWYRQAPGKERELVAAISSGGSTYYADSVKGRFTISRDNAKNTVYLQMNSLKPEDTAVYYCNVRRGGWGYRYYYWGQGTQVTVSS	high polyreactivity
QVQLVESGGRLVQAGGSIRLSCAASGSIFVQYAMGWYRPAPGKERELVAAIDFSDTSTYYADSVKGLFTISRDNAKITVYLQMNSLKPEDTAVYYCAAEEDSPSRSAIAVEEYLGQGTQVTVSS	low polyreactivity
QVQLVESGGRLVQAGGSLLLSCDASGSIFRHYAMGWYRQAPWQERELVAAISAIGGSTYADSVKGRFTISRDNAKNTVYLQMNSLIPEDTGVYYCNARSYTSYVYHEAGEFDYWGQGTQVTVSS	low polyreactivity
QVQLVESGGRLVQAGGSLRLRCAASGRTFYWNGMGWYRQSPGKERELVAAITVSVGSTYFADSVKGRFTISRDNAKNTVSLQMNSLKPEDTAVYYCNADAYYEARIWSYRKGDYWGQGTQVTVSS	low polyreactivity
QVQLVESGGRLVQAGGSLRLSCAASGFIFGFYAMGWYRQAPGKELELVAANSWSGGSTYYADSVKGRFTISRDKAKNTVFIQMNSLKPVDTAVYYCAAYFVYLDDAVTYDYWGQGTHVTVSS	low polyreactivity
QVQLVESGGRLVQAGGSLRLSCAASGFIIVFYDMGWYRQAPGKERELVAGITRNDGSTYYADSVKGRFKISRDNAKNTVYLQMNSLKPEDTAVYYCAADRVRRNDKLAYDYWGQGTQVTVSS	low polyreactivity
QVQLVESGGRLVQAGGSLRLSCAASGFTFDVYAMGWYRQAPGKERELVASITLRDGSTYYADSVKGRFTISRDNAKNTVYLQMNSLKPEDTAVYYCAADDSRATYEFEYWGQGTQVTVSS	low polyreactivity
QVQLVESGGRLVQAGGSLRLSCAASGFTFRYYAMGWYRQAPGKERELVAAINSGGSTNFADSVKGRFTISRDNAKNTVYLQMNSLKPEDTAVYYCAKRGRRGIVYLGSAEMDYWGQGTQVTVSS	low polyreactivity
QVQLVESGGRLVQAGGSLRLSCAASGFTFVYYAMGWYRQAPGKERELVAAVSWSGGTTYYADSVKGRFTISRDNAKNTVLLQMNSLKPEDTAVYYCNVYPAYNYFDYDYWGQGTQVTVSS	high polyreactivity
QVQLVESGGRLVQAGGSLRLSCAASGGTFVVYAMGWYSQARGKARELGAAITWIGDSTYYADSVKGRFTISRDNAKNTVYLQMNSLKPEDTAVYYCNAEGGYYLTEYGYWGQGTQETVSS	low polyreactivity
QVQLVESGGRLVQAGGSLRLSCAASGITFNVYAMGWYRQEPGKERELVAAITSSGATTYYADSVKGRFTISRDNAKNTVYLQMNSLKPEDTSVYYCAAKLSTRRYKYDYWGQGTQVTVSS	high polyreactivity
QVQLVESGGRLVQAGGSLRLSCAASGITFTAYAMGWYRPAPGKERELVATINSTGITNYADSVKGRFTISRDNAKNTVYLQMNSLKPEDTAVYYCAADLLDISSYDGMDYWGQGTQVTVSS	low polyreactivity
QVQLVESGGRLVQAGGSLRLSCAASGLIFAWYAMGWYRQAPGKQRELVATISWNGDRTYYADSVKVRFTISRDNAKNTVYLQMNSVKPVDSAVYYCAARFGSGFNYWGQGNQVTVSS	high polyreactivity
QVQLVESGGRLVQAGGSLRLSCAASGRIFALNAMGWYRQAPGKERELVAAITWGGGSTYYADSVKGRFTISRDNAKNTVYLQMNSLKPVDTAVYYCAARYVFWPYWISGDSWGQGTQVTVSS	low polyreactivity
QVQLVESGGRLVQAGGSLRLSCAASGRIFGYYAMGRYRQAPGKERQLVAAITSGGSTYYADSVKGRFTISRDNATNTVYLQMHSLKPEDTADYYCNARYWGRTKVYYWGQGTQVTVSS	high polyreactivity
QVQLVESGGRLVQAGGSLRLSCAASGRIFTGYAMGWYRQAPGKERELVAAISSRGGSTYYADYVKVRFTISRDNAKNTVYLQMNSLKPEDTAVYYCNAYQWRHRYTMYYWGQGTQVTVSS	high polyreactivity
QVQLVESGGRLVQAGGSLRLSCAASGRISWSYAMGWYRQAPGKERELVAAITSGGTTNYADSVKGRFTISRDNAKNTVYLQMNSLKPEDTAVYYCARDSYQLGLIRDPLEYDYWGQGTQVTVSS	low polyreactivity
QVQLVESGGRLVQAGGSLRLSCAASGRTFEIYSMGRYRHAPGKERELVAAITSGGSTYYADSVKGRFTISRDNAKNTVYLQMNSLKPEDTAVYYCNAYLYYDAHGVDYWGQGTQVTVSS	high polyreactivity
QVQLVESGGRLVQAGGSLRLSCAASGRTFHKNAMGWYRQAPGKERELVAAISGSGGSTYYADSVKGRFTISRDNAKNTVYLQMNSLKPEDTAVYYCAADSSYYEEDYWGQGTHVTVSS	high polyreactivity
QVQLVESGGRLVQAGGSLRLSCAASGRTFLVNDMGWYRQAPGKERELVAAINYNAGSTFYADSVKGRFTISRDIAKNTVYLQMNSLKPEDTAVYYCATDVYGYVEYDYWGQGTQVTVSS	low polyreactivity

Sequence	polyreactivity (PSR sort gate)
QVQLVESGGRLVQAGGSLRLSCAASGRTFQSYAMGWYRQAPGKERELVAAITITGGRTYYADSVKGRFTISRDNAKNTVYLQMNSLKPEDTAVYYCAAEEYSHYTLGYDYWGQGTQVTVSS	low polyreactivity
QVQLVESGGRLVQAGGSLRLSCAASGRTFRAYVMGWYRQSPGKERELVAAISSSGGRTYYADSVKGRFTISRDNAKNTVYLQMNSLKPEDTAVYYCAAQAVRGGIGEDDYWGQGTQVTVSS	high polyreactivity
QVQLVESGGRLVQAGGSLRLSCAASGRTFRGYAMGWYRQAPGKEREWVAAISSGGSTYYADSVKGRFTISRDNAKNTVYFQMNSLKPEDTAVSYCDRAVGNYRTLEFDYWGQGTQVTVSS	low polyreactivity
QVQLVESGGRLVQAGGSLRLSCAASGRTFSTNVMGRYRQAPGKVRELVAAITTSSSRTYYADSVKGRFTISRDNAKNTVYLQMNSLKPEDTAVYYCAAGIHGSWSFDYWGQGTQVTLSS	low polyreactivity
QVQLVESGGRLVQAGGSLRLSCAASGRTFTAYTMGGYRQAPGKERELVASNSSGVTYADSVKGRFTISRDNAKNTVYLQMNSLKPEDTAVYYCAARLWYVQGYVPYVHHRFDYWGQGTQVTVSS	low polyreactivity
QVQLVESGGRLVQAGGSLRLSCAASGRTFVTNAMGWYRQAPGQERELVAAISSNGGSTYYADSVKGRFTISRDNAKNTVYLQMNSLKPEDTAVYYCNAEGQPLYVSWHDHRYIYGFDYWGQGTQVTVSS	low polyreactivity
QVQLVESGGRLVQAGGSLRLSCAASGRTSVVHAMGWYRTAPGKERELVAAITSGGSTHYPDSVKGRFTISRDNAKNTVYLQMNSLKPEDTAVYYCNARDRRRTNLQDYWGQGTQVTVSS	low polyreactivity
QVQLVESGGRLVQAGGSLRLSCAASGSIFLAYAMGWYRQAPGKEREFVAAISFSDGSTYYADSVKGRFTISRDNAKNTVYLQMNSLKPEDTAVYYCNKGASPDDYDYWGQGTQVTVSS	low polyreactivity
QVQLVESGGRLVQAGGSLRLSCAASGSIFRANAMVWYRQAPGNERELVAAISPNGGSTYYADSVKGRFTISRDHAKNTVYLQMNSLKPEDTAVYYCNTDHRNIWFRFKYDYWGQGTQVTVSS	high polyreactivity
QVQLVESGGRLVQAGGSLRLSCAASGSIFRSYAMAWYRPAPGKERELVAGISYSGGSTYYADSVKGRFTISRDNAKNTVYLQMNSLKPEDTAVYYCNVDGGTYFFFVGAWGEYDYWGQGTQVTVSS	low polyreactivity
QVQLVESGGRLVQAGGSLRLSCAASGSIIVYNTMGWYRQAPGKERELVAAITVRDDSTYYADSVKGRFTISRDNAKNTVYLQMNSLKPEDTAVYYCNARGNFLIGRDYWGQGTQVTVSS	low polyreactivity
QVQLVESGGRLVQAGGSLRLSCAASGSTFGRYVMGWYRQTPGKERELVAAISYSGGRTYYADSVKLRFTISRDNAKNTVYLQMNSLNPEDTAVFYCATRVTLTRWLYDYWGQGSQVTVSS	high polyreactivity
QVQLVESGGRLVQAGGSLRLSCAASGSTFNRYAMGWYRQAPGKERELVAAISRGGSTTYADSVKGRFTISRDNAKHTVYLQMYSLKPEDTAVYYCAALYYSPRYWYDYWGLGTQVTVSS	high polyreactivity
QVQLVESGGRLVQAGGSLRLSCAASGSTFSRNARGWNRQAPGKERELVAAISRSSSRTYYADSVKGRFTISRDNAKNTVYLQMNSLKPEDTAVYYCAADGYVWTPYLYDYWGQGTQVTVSS	high polyreactivity
QVQLVESGGRLVQAGGSLRLSCAASGSTFTYNAMGWYRQAPGKESELVASISSGTTTYYADSVKGRFTISRDNAKNTVYVQMNSLKPEDTAVYYCAFDSWSRVQGWLAHNYDYWGQGTQVTVSS	low polyreactivity
QVQLVESGGRLVQAGGSLRLSCAASGSTFYDYAMGWYRQAPGKERELVASIDSGDSTNYADSVKGRFTISRDNAKNTVYLQMNSLKPEDTAVYYCAADYRAPLDYWGQGTQVTVSS	low polyreactivity
QVQLVESGGRLVQAGGSLRLSCAASGSTIVRNGMGWYRQAPGKERELVAAITRGGSTYYADSVKGRFTISRDNAKNTVYLQMNSLKPEDTAVYYCATYDPARSTQGYDYWGQGTQVTVSS	high polyreactivity
QVQLVESGGRLVQAGGSLRLSCAASGSTIYPNAMGWSRQAPGKERELVAAISRGTRTKYADSVKGRFTISRDNAKNTVYVQMNSLKPEDTAVYYCAADTGTGLDWGQGTQGTVSS	high polyreactivity
QVQLVESGGRLVQAGGSLRLSCAASGSTVGYNALGWYRQAPGKASELVAAITSRGSTNYADSVKGRFTISRDNAKNTVYLQMNSLKPEVTAVYYCAKATSSSEYGYDYWGQGTQVTVSS	high polyreactivity
QVQLVESGGRLVQAGGSLRLSCAASGSTYAMGWYRQAPGKERELVASITSRGGSTYYADSVKGRFTISRDNAKNTVYLQMNSLKPEDTAVYYCAARWYFSYIGYDYWGQGTQVTVSS	high polyreactivity
QVQLVESGGRLVQAGGSLRLSCAASGYIFSRNAMGSYRQAPGKERELVATISRGGSTYYGDSVKGRFTISRDNDKNTVYLQMNSLKPEDTAVYFCAATVVYWRSKSSVRRYDYWGQGTQVTVSS	high polyreactivity
